US20240272170A1 (QUANTUM SI, published 2024)
Where a chain is given by its changes, count along the chain named. In names and notes the source's numbering stands. Where two headings read alike, the source gives them in different places. Each block holds one binder with its values, some of them ahead of it. No end group written: not given here. *: point of attachment. FITC = O=C1OC2(c3ccc(O)cc3Oc3cc(O)ccc32)c2ccc(NC(=S)*)cc21

Legend:
[1] = target: VA Peptide (fluorescence polarization) (FITC on the C-terminal lysine); assay: fluorescence polarization, FITC peptide titrated with protein
[2] = target: T1, AA Peptide (fluorescence polarization), AAKLDEESILKQ{LYS(FITC)}; assay: as above
T1 peptide: AAKLDEESILKQK(FITC)

[3] = target: T2, LA Peptide (fluorescence polarization); assay: as above
T2 peptide: LAKLDEESILKQK(FITC)

[4] = target: T3, MA Peptide (fluorescence polarization); assay: as above
T3 peptide: MAKLDEESILKQK(FITC)

[5] = target: T4, MA peptide (Octet assay of PS557 variants); assay: Octet (BLI), peptide on sensor, response after 200 s association
T4 construct: Peptide coated on the Octet sensor
From the text: (§1) In the high-throughput assay, Octet sensors are coated with the peptide of interest and dipped in buffer containing the purified protein. An approximation of relative binding can be obtained by comparing the response after 200 seconds for each protein. Each protein has approximately the same molecular mass and is used at the same concentration, so ranking the proteins by response level in this assay gives an approximation of which proteins have improved binding. Studying the on and off-rate can also give insight into the mechanism of binding.

[6] = target: T5, IA peptide (Octet assay of PS557 variants); assay: as above
T5 construct: Peptide coated on the Octet sensor
From the text: as §1

[7] = target: T6, FA peptide (Octet assay of PS557 variants); assay: as above
T6 construct: Peptide coated on the Octet sensor
From the text: as §1

[8] = target: T7, WA peptide (Octet assay of PS557 variants); assay: as above
T7 construct: Peptide coated on the Octet sensor
From the text: as §1

[9] = target: T8, YA peptide (Octet assay of PS557 variants); assay: as above
T8 construct: Peptide coated on the Octet sensor
From the text: as §1

[10] = target: T9, AA peptide (Octet assay of PS557 variants); assay: as above
T9 construct: Peptide coated on the Octet sensor
From the text: (§2) In the high-throughput assay, Octet sensors are coated with the peptide of interest and dipped in buffer containing the purified protein. […] Studying the on and off-rate can also give insight into the mechanism of binding.

[11] = target: T10, VA peptide (Octet assay of PS557 variants); assay: as above
T10 construct: Peptide coated on the Octet sensor
From the text: as §2

[12] = target: T11, LA peptide (Octet assay of PS557 variants); assay: as above
T11 construct: Peptide coated on the Octet sensor
From the text: as §2

[13] = target: T4, MA peptide (Octet assay of PS557 …); assay: as above; remark: listed apart in the source
From the text: as §2

[14] = target: T5, IA peptide (Octet assay of PS557 …); assay: as above; remark: listed apart in the source
From the text: as §2

[15] = target: T6, FA peptide (Octet assay of PS557 …); assay: as above; remark: listed apart in the source
From the text: as §2

[16] = target: T12, RA peptide (Octet assay of PS621 variants); assay: Octet (BLI), 30 C
T12 construct: X… with X = R
From the text: (§3) Peptides of the sequence RXKLDEESILKQK (SEQ ID NO: 1076) were also used to evaluate the penultimate residue effect.

[17] = target: T13, RL peptide (Octet assay of PS621 variants); assay: Octet (BLI), 30 C
T13 construct: RXKLDEESILKQK with X = L
T13 peptide: RLKLDEESILKQK
From the text: as §3

[18] = target: T14, RE peptide (Octet assay of PS621 variants); assay: Octet (BLI), 30 C
T14 construct: RXKLDEESILKQK with X = E
T14 peptide: REKLDEESILKQK
From the text: as §3

[19] = target: T15, RQ peptide (Octet assay of PS621 variants); assay: Octet (BLI), 30 C
T15 construct: RX… with X = Q
From the text: as §3

[20] = target: T16, RS peptide (Octet assay of PS621 variants); assay: Octet (BLI), 30 C
T16 construct: RXKLDEESILKQK with X = S
T16 peptide: RSKLDEESILKQK
From the text: as §3

[21] = target: T17, RR peptide (Octet assay of PS621 variants); assay: Octet (BLI), 30 C
T17 construct: RX… with X = R
From the text: as §3

[22] = target: T18, RF peptide (Octet assay of PS621 variants); assay: Octet (BLI), 30 C
T18 construct: RX… with X = F
From the text: as §3

[23] = target: T19, KA peptide (Octet assay of PS621 variants); assay: Octet (BLI), 30 C
T19 construct: XAKLDEESILKQK with X = K
T19 peptide: KAKLDEESILKQK

[24] = target: T20, RA peptide (XAKLDEESILKQK-FITC, X = R); assay: fluorescence polarization titration, 20 C
T20 construct: also called peptide with N-terminal arginine
T20 peptide: RAKLDEESILKQK(FITC)
Description: (§4) Binding affinity was measured by polarization using a labeled peptide. The polarization response and total intensity measurements were carried out at 20° C. on a microplate fluorometer with 480 nm excitation and 530 nm emission. […] Multiple analyses were performed at increasing recognizer concentration at a fixed concentration of a target peptide to obtain a titration curve. An equilibrium polarization response at each concentration was plotted and fit to calculate the KD.
(§5) Fluorescence polarization assays were performed with all candidates, and single point binding responses were measured at a fixed concentration of the binders (FIG. 13A). […] We carried out multiple polarization binding titration analysis at increasing concentration of binder protein, and the Kds were determined from the titration curves (FIG. 13B).

[25] = target: T21, HA peptide (Octet assay of PS621 variants); assay: Octet (BLI), 30 C
T21 construct: XAKLDEESILKQK with X = H
T21 peptide: HAKLDEESILKQK

[26] = target: T22, HA peptide (XAKLDEESILKQK-FITC, X = H); assay: fluorescence polarization titration, 20 C
T22 construct: also called peptide with N-terminal histidine
T22 peptide: HAKLDEESILKQK(FITC)
Description: as §4, §5

B1: PS769 (designed binder)
chain: MPTAASATESAIEDTPAPARPEVDGRTKPKRQPRYHVVLWDDDDHTYQYVVVMLQSLFGHPPERGYRLAKEVDTQGRVIVLTTTREHAELKRDQIHAFGYDRLLARSKGSMKASIEAEE
notes: Variant of PS557; also called N41D
Kd [1]: 276 nM | Kd [2]: 8700 nM

B2: PS824 (designed binder)
chain: B1 chain with I12F, Q55R, V72M
notes: Variant of PS557
Kd [3]: 10 nM | Kd [1]: 205 nM | Kd [2]: 6770 nM | Kd [4]: 648 nM | Octet response [5]: 9.5 nm | Octet response [6]: 13.5 nm | Octet response [7]: 0.673 nm | Octet response [8]: 0.165 nm | Octet response [9]: 1.31 nm

B3: PS960 (designed binder)
chain: B1 chain with Q55R, H60I, V72M
notes: Variant of PS557
Octet response [10]: 1.68 nm | Octet response [11]: 9.29 nm | Octet response [12]: 10.5 nm | Octet response [13]: 6.86 nm | Octet response [14]: 9.98 nm | Octet response [15]: 0.0851 nm

B4: PS962 (designed binder)
chain: B1 chain with Q55R, P62Y, E63A, V72M, Y100R
notes: Variant of PS557
Octet response [10]: 3.76 nm | Octet response [11]: 10.7 nm | Octet response [12]: 10.5 nm | Octet response [13]: 8.37 nm | Octet response [14]: 10.7 nm | Octet response [15]: 2.57 nm

B6: PS816 (designed binder)
chain: B1 chain with V72M
notes: Variant of PS557; also called N41D, V72M
Kd [1]: 266 nM | Kd [2]: 7590 nM | Kd [4]: 805 nM

B7: PS857 (designed binder)
chain: B1 chain with L68M, V72M
notes: Variant of PS557; also called N41D, V72M, L68M
Kd [3]: 7 nM | Kd [1]: 487 nM | Kd [2]: 15000 nM | Kd [4]: 746 nM

B9: PS934 (designed binder)
chain: B1 chain with P62R, L68M, V72M
notes: Variant of PS557; also called N41D, V72M, L68M, P62R
Kd [2]: 5330 nM | Kd [4]: 325 nM

B11: PS852 (designed binder)
chain: B1 chain with R31H, Q55R, V72M
notes: Variant of PS557
Kd [3]: 19 nM | Kd [1]: 142 nM | Kd [2]: 5140 nM | Kd [4]: 1140 nM | Octet response [5]: 5.48 nm | Octet response [6]: 9.38 nm | Octet response [7]: 0.102 nm | Octet response [8]: 0.0292 nm | Octet response [9]: 0.177 nm

B13: PS1120 (designed binder)
chain: MHSKFSHAGRICGAKFKVGEPIYRCKECSFDDTCVLCVNCFNPKDHTGHHVYTKICTEFNNGICDCGDKEAWNHTLFCKAEEG
notes: Variant of PS621
Octet response [16]: 9.9 | Octet response [17]: 11.7 | Octet response [18]: 8.8 | Octet response [19]: 9.5 | Octet response [20]: 8.3 | Octet response [21]: 5.9 | Octet response [22]: 10.2 | Octet response [25]: 1.7 | Octet response [23]: 5.5

B16: PS1105 (designed binder)
chain: B13 chain with G48R, K54T
notes: Variant of PS621
Octet response [16]: 6.5 | Octet response [17]: 7.5 | Octet response [18]: 2.9 | Octet response [19]: 5.9 | Octet response [20]: 5.5 | Octet response [21]: 4.4 | Octet response [22]: 7.2 | Octet response [25]: 0.2 | Octet response [23]: 2.6

B17: PS1118 (designed binder)
chain: B13 chain with K54T, E58K
notes: Variant of PS621
Octet response [16]: 9.8 | Octet response [17]: 10.6 | Octet response [25]: 1.8 | Octet response [23]: 5 | Kd [24]: 271 nM | Kd [26]: 6180 nM

B19: PS1119 (designed binder)
chain: B13 chain with K54T, T57K
notes: Variant of PS621
Octet response [16]: 8.6 | Octet response [17]: 9.6 | Octet response [25]: 0.7 | Octet response [23]: 3.3 | Kd [24]: 289 nM | Kd [26]: 11400 nM

Results, then the binder that gave them:

Octet response [10]: 4.06 nm | Octet response [11]: 10.4 nm | Octet response [12]: 9.65 nm | Octet response [13]: 8.4 nm | Octet response [14]: 10.2 nm | Octet response [15]: 2.25 nm
B5: PS963 (designed binder)
chain: B1 chain with Q55R, E63A, V72M, Y100R
notes: Variant of PS557

Kd [2]: 5440 nM | Kd [4]: 395 nM
B8: PS968 (designed binder)
chain: B1 chain with D41N, Q55R, V72M, Y100R
notes: Variant of PS557; also called V72M, Q55R, Y100R

Kd [2]: 3300 nM | Kd [4]: 143 nM | Octet response [10]: 4.87 nm | Octet response [11]: 11.3 nm | Octet response [12]: 11.8 nm | Octet response [13]: 9.26 nm | Octet response [14]: 11.5 nm | Octet response [15]: 2.05 nm
B10: PS961 (designed binder)
chain: B1 chain with Q55R, E63S, L68M, V72M, Y100R
notes: Variant of PS557; also called N41D, V72M, Q55R, E63S, L68M, Y100R

Octet response [16]: 6.5 | Octet response [17]: 7.7 | Octet response [18]: 1.9 | Octet response [19]: 4.7 | Octet response [20]: 4.3 | Octet response [21]: 2.8 | Octet response [22]: 6 | Octet response [23]: 1.4 | Kd [24]: 1550 nM
B12: PS1101 (designed binder)
chain: B13 chain with G19R, K54T
notes: Variant of PS621

Octet response [16]: 7.8 | Octet response [17]: 8.1 | Octet response [25]: 0.6 | Octet response [23]: 3.9 | Kd [24]: 298 nM | Kd [26]: 3830 nM
B14: PS1107 (designed binder)
chain: B13 chain with K54T, T57R
notes: Variant of PS621

Octet response [16]: 8.6 | Octet response [17]: 10.4 | Octet response [18]: 6.6 | Octet response [19]: 9.3 | Octet response [20]: 8.5 | Octet response [21]: 7 | Octet response [22]: 9.3 | Octet response [25]: 2.5 | Octet response [23]: 6.6 | Kd [24]: 638 nM
B15: PS1102 (designed binder)
chain: B13 chain with S29Q, K54T
notes: Variant of PS621

Octet response [16]: 9.4 | Octet response [17]: 11.3 | Octet response [18]: 7.6 | Octet response [19]: 9.7 | Octet response [20]: 8.9 | Octet response [21]: 8 | Octet response [22]: 10.5 | Octet response [25]: 3.4 | Octet response [23]: 7.3
B18: PS1104 (designed binder)
chain: B13 chain with T47R, K54T
notes: Variant of PS621
